Test results: paper PMC12521514

B1: Staphylococcus aureus ClpP wild type, Q2G036 1-195 (enzyme)
chain: MNLIPTVIETTNRGERAYDIYSRLLKDRIIMLGSQIDDNVANSIVSQLLFLQAQDSEKDIYLYINSPGGSVTAGFAIYDTIQHIKPDVQTICIGMAASMGSFLLAAGAKGKRFALPNAEVMIHQPLGGAQGQATEIEIAANHILKTREKLNRILSERTGQSIEKIQKDTDRDNFLTAEEAKEYGLIDEVMVPETK

Columns and labels:
[1] = molecular target: ClpP-N12A (Staphylococcus aureus) (UniProt Q2G036); assay: negative stain EM
[2] = molecular target: T1, Staphylococcus aureus ClpP wild type (Staphylococcus aureus), Q2G036; settings: remark: other sources report otherwise
T1 chain: B1 chain

Row | Molecule | stoichiometry N [1] | stoichiometry N [2]
1 | ClpP-N12A (from UniProt Q2G036) (enzyme) | 14 | –
2 | B1 | – | 14
